Experimental data from patent publication US11565003B2, “Mechanical opening of lipid bilayers by molecular nanomachines” (William Marsh Rice University, priority 2016, dated 2023).
Starred links: 1 amine or outer side, 2 acyl side, 3 side chain; linkers in the order of their positions; H or OH if unused. Positions of bridges follow the written chain, without caps; N, C: chain ends. Residues, ends and D or L forms follow the SMILES beside them. Chains are numbered I, II in the order given. X2 = C[C@@H]1Cc2ccc3ccccc3c2C1=C1c2cc(C#CCCn3cc(C(=O)[*:1])nn3)ccc2Sc2ccc(C#CCCn3cc(C(=O)[*:2])nn3)cc21

Tested on: PC-3 cells
Test: Two-photon near-infra red activation, PI dye entry, PC-3
Format: cell-based, human
Conditions: PC-3, 1 μM, PI 200 nM
Procedure: Two-photon microscopy studies of NIH 3T3 cells were executed on a Nikon E600 upright confocal microscope coupled to a tuneable (710-950 nm Coherent MaiTai) multiphoton source operating at (20%) 240 mW power using a 166 lps scan speed and 128×128 pixel frame resolution for MP-illumination. Images (512×512 pixel, 166 lps) were recorded using a 543 nm (1 mW HeNe) laser combined with a 560 nm long-pass filter to record PI (200 nM) fluorescence and follow the onset of induced necrosis.
Two photon live cell microscopy studies were also executed on a Nikon E600 upright confocal microscope coupled to a tuneable (710-950 nm Coherent MaiTai) multiphoton source operating at (19.8%) 240 mW power at 720 nm using 166 lines/sec scan speed and 128×128 pixel frame resolution for MP-illumination. An oil immersion Nikon IR objective (×60/1.4 NA) was used. Images (512×512 pixel, 166 l/s) were recorded using a 543 nm (1 mW HeNe) laser combined with a 570 nm long-pass filter to record PI dyes (200 nM). Fluorescence was measured as 2 frame averaged images in order to follow the onset of induced necrosis. Necrosis times have been assigned to detectable PI signals in the nucleolus.

For CC(C)[C@H](NC(=O)[C@H](CCCNC(=N)N)NC(=O)[C@@H](NC(=O)[C@H](CC(N)=O)NC(=O)[C@H](CO)NC(=O)c1cn(CCC#Cc2ccc3c(c2)C(=C2c4c(ccc5ccccc45)C[C@H]2C)c2cc(C#CCCn4cc(C(=O)N[C@@H](CO)C(=O)N[C@@H](CC(N)=O)C(=O)N[C@H](C(=O)N[C@@H](CCCNC(=N)N)C(=O)N[C@H](C(=O)N[C@@H](C)C(=O)N5CCC[C@H]5C(=O)O)C(C)C)[C@@H](C)O)nn4)ccc2S3)nn1)[C@@H](C)O)C(=O)N[C@@H](C)C(=O)N1CCC[C@H]1C(=O)O [Compound 9] (I: SNTRVAP-OH / II: SNTRVAP-OH; linker I:N-II:N via X2), the “PI dye entry upon two-photon near-infra red illumination (in words)” value was “resulting in Propidium Iodide (PI) dyes entering”.
